# *1 amine or outer side, *2 acyl side, *3 side chain or, on linkers, in order; H or OH if unused. Side-chain parts run from the residue outwards. The star is where a group is joined. C18 diacid = O=C(O)CCCCCCCCCCCCCCCCC(=O)*; γGlu = O=C(O)[C@H](CCC(=O)[*:2])N[*:1]; Isovaleryl = CC(C)CC(=O)*; Ahx = NCCCCCC(=O)O
# T1: human NPY2 receptor (human, UniProt P49146 1-381)
# T1 construct: whole, on cells; also called hNPY2-R; hNPY2R
# T1 sequence (looked up): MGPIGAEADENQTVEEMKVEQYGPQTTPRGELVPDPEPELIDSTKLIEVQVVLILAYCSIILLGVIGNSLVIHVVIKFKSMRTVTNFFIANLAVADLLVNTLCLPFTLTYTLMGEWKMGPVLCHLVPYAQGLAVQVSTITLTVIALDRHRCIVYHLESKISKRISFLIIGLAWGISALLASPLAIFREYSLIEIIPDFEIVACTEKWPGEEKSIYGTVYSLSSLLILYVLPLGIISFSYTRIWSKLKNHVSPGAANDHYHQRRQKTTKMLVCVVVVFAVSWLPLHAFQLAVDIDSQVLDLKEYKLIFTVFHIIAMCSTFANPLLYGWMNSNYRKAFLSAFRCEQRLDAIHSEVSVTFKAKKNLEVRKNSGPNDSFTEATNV
# Target: T1, human NPY2 receptor
# Test: RLB: displacement of 125I-PYY(1-36) from hNPY2R membranes
row,Binder,Ki
1,Isovaleryl-APEK([Ahx-γGlu-C18 diacid])PEEAAEPEEIQRYYVALRHYYNWLTRQRY-NH2 (SMILES CC[C@H](C)[C@H](NC(=O)[C@H](CCC(=O)O)NC(=O)[C@H](CCC(=O)O)NC(=O)[C@@H]1CCCN1C(=O)[C@H](CCC(=O)O)NC(=O)[C@H](C)NC(=O)[C@H](C)NC(=O)[C@H](CCC(=O)O)NC(=O)[C@H](CCC(=O)O)NC(=O)[C@@H]1CCCN1C(=O)[C@H](CCCCNC(=O)CCCCCNC(=O)CC[C@H](NC(=O)CCCCCCCCCCCCCCCCC(=O)O)C(=O)O)NC(=O)[C@H](CCC(=O)O)NC(=O)[C@@H]1CCCN1C(=O)[C@H](C)NC(=O)CC(C)C)C(=O)N[C@@H](CCC(N)=O)C(=O)N[C@@H](CCCNC(=N)N)C(=O)N[C@@H](Cc1ccc(O)cc1)C(=O)N[C@@H](Cc1ccc(O)cc1)C(=O)N[C@H](C(=O)N[C@@H](C)C(=O)N[C@@H](CC(C)C)C(=O)N[C@@H](CCCNC(=N)N)C(=O)N[C@@H](Cc1c[nH]cn1)C(=O)N[C@@H](Cc1ccc(O)cc1)C(=O)N[C@@H](Cc1ccc(O)cc1)C(=O)N[C@@H](CC(N)=O)C(=O)N[C@@H](Cc1c[nH]c2ccccc12)C(=O)N[C@@H](CC(C)C)C(=O)N[C@H](C(=O)N[C@@H](CCCNC(=N)N)C(=O)N[C@@H](CCC(N)=O)C(=O)N[C@@H](CCCNC(=N)N)C(=O)N[C@@H](Cc1ccc(O)cc1)C(N)=O)[C@@H](C)O)C(C)C) [Compound 156],4.2 nM
2,Isovaleryl-APAK([Ahx-γGlu-C18 diacid])PEEAASPEELQRYYVALRHYYNWLTRQRY-NH2 (SMILES CC(C)CC(=O)N[C@@H](C)C(=O)N1CCC[C@H]1C(=O)N[C@@H](C)C(=O)N[C@@H](CCCCNC(=O)CCCCCNC(=O)CC[C@H](NC(=O)CCCCCCCCCCCCCCCCC(=O)O)C(=O)O)C(=O)N1CCC[C@H]1C(=O)N[C@@H](CCC(=O)O)C(=O)N[C@@H](CCC(=O)O)C(=O)N[C@@H](C)C(=O)N[C@@H](C)C(=O)N[C@@H](CO)C(=O)N1CCC[C@H]1C(=O)N[C@@H](CCC(=O)O)C(=O)N[C@@H](CCC(=O)O)C(=O)N[C@@H](CC(C)C)C(=O)N[C@@H](CCC(N)=O)C(=O)N[C@@H](CCCNC(=N)N)C(=O)N[C@@H](Cc1ccc(O)cc1)C(=O)N[C@@H](Cc1ccc(O)cc1)C(=O)N[C@H](C(=O)N[C@@H](C)C(=O)N[C@@H](CC(C)C)C(=O)N[C@@H](CCCNC(=N)N)C(=O)N[C@@H](Cc1c[nH]cn1)C(=O)N[C@@H](Cc1ccc(O)cc1)C(=O)N[C@@H](Cc1ccc(O)cc1)C(=O)N[C@@H](CC(N)=O)C(=O)N[C@@H](Cc1c[nH]c2ccccc12)C(=O)N[C@@H](CC(C)C)C(=O)N[C@H](C(=O)N[C@@H](CCCNC(=N)N)C(=O)N[C@@H](CCC(N)=O)C(=O)N[C@@H](CCCNC(=N)N)C(=O)N[C@@H](Cc1ccc(O)cc1)C(N)=O)[C@@H](C)O)C(C)C) [Compound 157],1.68 nM
3,Isovaleryl-APEK([Ahx-γGlu-C18 diacid])PPEAASPEEIQRYYVALRHYYNWLTRQRY-NH2 (SMILES CC[C@H](C)[C@H](NC(=O)[C@H](CCC(=O)O)NC(=O)[C@H](CCC(=O)O)NC(=O)[C@@H]1CCCN1C(=O)[C@H](CO)NC(=O)[C@H](C)NC(=O)[C@H](C)NC(=O)[C@H](CCC(=O)O)NC(=O)[C@@H]1CCCN1C(=O)[C@@H]1CCCN1C(=O)[C@H](CCCCNC(=O)CCCCCNC(=O)CC[C@H](NC(=O)CCCCCCCCCCCCCCCCC(=O)O)C(=O)O)NC(=O)[C@H](CCC(=O)O)NC(=O)[C@@H]1CCCN1C(=O)[C@H](C)NC(=O)CC(C)C)C(=O)N[C@@H](CCC(N)=O)C(=O)N[C@@H](CCCNC(=N)N)C(=O)N[C@@H](Cc1ccc(O)cc1)C(=O)N[C@@H](Cc1ccc(O)cc1)C(=O)N[C@H](C(=O)N[C@@H](C)C(=O)N[C@@H](CC(C)C)C(=O)N[C@@H](CCCNC(=N)N)C(=O)N[C@@H](Cc1c[nH]cn1)C(=O)N[C@@H](Cc1ccc(O)cc1)C(=O)N[C@@H](Cc1ccc(O)cc1)C(=O)N[C@@H](CC(N)=O)C(=O)N[C@@H](Cc1c[nH]c2ccccc12)C(=O)N[C@@H](CC(C)C)C(=O)N[C@H](C(=O)N[C@@H](CCCNC(=N)N)C(=O)N[C@@H](CCC(N)=O)C(=O)N[C@@H](CCCNC(=N)N)C(=O)N[C@@H](Cc1ccc(O)cc1)C(N)=O)[C@@H](C)O)C(C)C) [Compound 158],0.58 nM

# More lines, now with the values ahead:
row,Ki,Binder
1,2.75 nM,Isovaleryl-APEK([Ahx-γGlu-C18 diacid])PEADAEPEELQRYYISLRHYYNWLTRQRY-NH2 (SMILES CC[C@H](C)[C@H](NC(=O)[C@H](Cc1ccc(O)cc1)NC(=O)[C@H](Cc1ccc(O)cc1)NC(=O)[C@H](CCCNC(=N)N)NC(=O)[C@H](CCC(N)=O)NC(=O)[C@H](CC(C)C)NC(=O)[C@H](CCC(=O)O)NC(=O)[C@H](CCC(=O)O)NC(=O)[C@@H]1CCCN1C(=O)[C@H](CCC(=O)O)NC(=O)[C@H](C)NC(=O)[C@H](CC(=O)O)NC(=O)[C@H](C)NC(=O)[C@H](CCC(=O)O)NC(=O)[C@@H]1CCCN1C(=O)[C@H](CCCCNC(=O)CCCCCNC(=O)CC[C@H](NC(=O)CCCCCCCCCCCCCCCCC(=O)O)C(=O)O)NC(=O)[C@H](CCC(=O)O)NC(=O)[C@@H]1CCCN1C(=O)[C@H](C)NC(=O)CC(C)C)C(=O)N[C@@H](CO)C(=O)N[C@@H](CC(C)C)C(=O)N[C@@H](CCCNC(=N)N)C(=O)N[C@@H](Cc1c[nH]cn1)C(=O)N[C@@H](Cc1ccc(O)cc1)C(=O)N[C@@H](Cc1ccc(O)cc1)C(=O)N[C@@H](CC(N)=O)C(=O)N[C@@H](Cc1c[nH]c2ccccc12)C(=O)N[C@@H](CC(C)C)C(=O)N[C@H](C(=O)N[C@@H](CCCNC(=N)N)C(=O)N[C@@H](CCC(N)=O)C(=O)N[C@@H](CCCNC(=N)N)C(=O)N[C@@H](Cc1ccc(O)cc1)C(N)=O)[C@@H](C)O) [Compound 159]
2,14.9 nM,Isovaleryl-APEK([Ahx-γGlu-C18 diacid])PEEDATPEEEQRYYVSLRHYYNWLTRQRY-NH2 (SMILES CC(C)CC(=O)N[C@@H](C)C(=O)N1CCC[C@H]1C(=O)N[C@@H](CCC(=O)O)C(=O)N[C@@H](CCCCNC(=O)CCCCCNC(=O)CC[C@H](NC(=O)CCCCCCCCCCCCCCCCC(=O)O)C(=O)O)C(=O)N1CCC[C@H]1C(=O)N[C@@H](CCC(=O)O)C(=O)N[C@@H](CCC(=O)O)C(=O)N[C@@H](CC(=O)O)C(=O)N[C@@H](C)C(=O)N[C@H](C(=O)N1CCC[C@H]1C(=O)N[C@@H](CCC(=O)O)C(=O)N[C@@H](CCC(=O)O)C(=O)N[C@@H](CCC(=O)O)C(=O)N[C@@H](CCC(N)=O)C(=O)N[C@@H](CCCNC(=N)N)C(=O)N[C@@H](Cc1ccc(O)cc1)C(=O)N[C@@H](Cc1ccc(O)cc1)C(=O)N[C@H](C(=O)N[C@@H](CO)C(=O)N[C@@H](CC(C)C)C(=O)N[C@@H](CCCNC(=N)N)C(=O)N[C@@H](Cc1c[nH]cn1)C(=O)N[C@@H](Cc1ccc(O)cc1)C(=O)N[C@@H](Cc1ccc(O)cc1)C(=O)N[C@@H](CC(N)=O)C(=O)N[C@@H](Cc1c[nH]c2ccccc12)C(=O)N[C@@H](CC(C)C)C(=O)N[C@H](C(=O)N[C@@H](CCCNC(=N)N)C(=O)N[C@@H](CCC(N)=O)C(=O)N[C@@H](CCCNC(=N)N)C(=O)N[C@@H](Cc1ccc(O)cc1)C(N)=O)[C@@H](C)O)C(C)C)[C@@H](C)O) [Compound 162]
3,4 nM,Isovaleryl-APAK([Ahx-γGlu-C18 diacid])PEEAAEPEELQRYYVALRHYYNWLTRQRY-NH2 (SMILES CC(C)CC(=O)N[C@@H](C)C(=O)N1CCC[C@H]1C(=O)N[C@@H](C)C(=O)N[C@@H](CCCCNC(=O)CCCCCNC(=O)CC[C@H](NC(=O)CCCCCCCCCCCCCCCCC(=O)O)C(=O)O)C(=O)N1CCC[C@H]1C(=O)N[C@@H](CCC(=O)O)C(=O)N[C@@H](CCC(=O)O)C(=O)N[C@@H](C)C(=O)N[C@@H](C)C(=O)N[C@@H](CCC(=O)O)C(=O)N1CCC[C@H]1C(=O)N[C@@H](CCC(=O)O)C(=O)N[C@@H](CCC(=O)O)C(=O)N[C@@H](CC(C)C)C(=O)N[C@@H](CCC(N)=O)C(=O)N[C@@H](CCCNC(=N)N)C(=O)N[C@@H](Cc1ccc(O)cc1)C(=O)N[C@@H](Cc1ccc(O)cc1)C(=O)N[C@H](C(=O)N[C@@H](C)C(=O)N[C@@H](CC(C)C)C(=O)N[C@@H](CCCNC(=N)N)C(=O)N[C@@H](Cc1c[nH]cn1)C(=O)N[C@@H](Cc1ccc(O)cc1)C(=O)N[C@@H](Cc1ccc(O)cc1)C(=O)N[C@@H](CC(N)=O)C(=O)N[C@@H](Cc1c[nH]c2ccccc12)C(=O)N[C@@H](CC(C)C)C(=O)N[C@H](C(=O)N[C@@H](CCCNC(=N)N)C(=O)N[C@@H](CCC(N)=O)C(=O)N[C@@H](CCCNC(=N)N)C(=O)N[C@@H](Cc1ccc(O)cc1)C(N)=O)[C@@H](C)O)C(C)C) [Compound 161]

# — patent publication US20260015399A1 (Boehringer Ingelheim, published 2026)
